Measured values as given in paper PMC3978166, “A new unconventional HLA-A2-restricted epitope from HBV core protein elicits antiviral cytotoxic T lymphocytes” (Protein & Cell, 2014).

Experiments:
[1] = target: HLA-A*0201 molecules on T2 cells (human (endogenous in T2)); assay: flow cytometry on cells
[2] = target: HLA-A*0201 molecules (Homo sapiens, UniProt P04439, D140Y/D185E/D98H/E176V/E277Q/G131W/G231S/I119V/I121R/I166T/I218V/L300P/L318F/N151K/N90K/P208A/P217A/Q86G/Q94H/R138H/R169H/T345S); assay: T2 binding assay (MHC stabilization assay with T2 cells, flow cytometry); type: cell-based; settings: FI = (mean FITC fluorescence with peptide − without peptide)/(without peptide), high affinity FI ≥1, representative of three independent experiments
Excerpt: (A) The overlapping method of 8 aa overlap was used to synthesize a total of 191 nonapeptides covering HBc aa 1–150. […] (C and D) Measurement of the binding affinity of HBc141–149N- or C-terminally truncated (C) or extended (D) peptides to HLA-A*0201. HBc82-90 served as a negative control (NC). (E) In vitro refolding of HBC141–149 peptide with HLA-A*0201 heavy chain and β2m. Gel filtration chromatography was used to analyze the refolded complexes on a Superdex200 16/60 column. […] The HLA complex (peak 2) was analyzed by SDS-PAGE electrophoresis and coomassie blue staining
T2 cells were used to perform MHC stabilization assays as previously described (Zhou et al., [2006]). The binding activity of each peptide was calculated as the fluorescent index (FI), and the FI was determined by: (mean FITC fluorescence with the given peptide − mean FITC fluorescence without peptide) (mean FITC fluorescence without peptide).

[3] = test system: peptide-specific CTLs; assay: IFN-γ ELISPOT on splenocytes of immunized HLA-A2.1/Kb transgenic mice; type: in vivo; settings: female HLA-A2.1/Kb mice, HBc DNA prime/peptide boost with gp96 adjuvant, 1 week after last immunization; 5 × 10^5 splenocytes; mean ± SD of five mice (Fig. 3A)
Description: Figure 3 Detection of HBc141–149 peptide-specific CD8 ^+ T cell response in HLA-A2.1/Kb mice and AHB patients. Female HLA-A2.1/Kb transgenic mice were immunized with an HBV DNA prime/peptide boost regimen at weeks 1, 3, and 4. […] (B and C) 293T cells labeled with CFSE were transfected with pHBV1.3 as target cells (B), and T2 cells labeled with CFSE were loaded with 20 μg/mL peptide at 37°C for 1 h as target cells (C). […] After 4 h, the mixed samples were stained with PI, and the killing of target cells were analyzed by FACS. The data shown are the mean ± SD of five mice. (D) AHB patients (n = 29) were divided into HLA-A2-positive (n = 19) and HLA-A2-negative (n = 10) groups. PBMCs (2 × 10^5/well) from these patients were stimulated with the indicated peptides for detection of peptide-specific CTLs by ELISPOT assay. HBc82–90 peptide served as negative control for background evaluation in ELISPOT assay. PBMCs from HLA-A2- patients were used for specificity evaluation of CTLs. Paired samples t-tests were used for ELISPOT assay in AHB patients. *P < 0.05 and **P < 0.01 by t-test. Data are representative of two independent experiments […]
To detect epitope-specific T cells, enzyme-linked immunosorbent spot (ELISPOT) assay was performed according to the manufacturer’s instruction. […] The spots were counted and analyzed using an ELISPOT Reader (Cellular Technology Ltd, USA).

[4] = test system: peptide-specific CTLs; assay: Ex vivo IFN-γ ELISPOT on PBMCs from HLA-A2+ AHB patients; type: cell-based, human; settings: PBMCs 2 × 10^5/well from HLA-A2+ AHB patients (n = 19), 50 μg/mL peptide; mean ± SD (Fig. 3D)
Description: (D) AHB patients (n = 29) were divided into HLA-A2-positive (n = 19) and HLA-A2-negative (n = 10) groups. PBMCs (2 × 10^5/well) from these patients were stimulated with the indicated peptides for detection of peptide-specific CTLs by ELISPOT assay. […] PBMCs from HLA-A2- patients were used for specificity evaluation of CTLs. Paired samples t-tests were used for ELISPOT assay in AHB patients. *P < 0.05 and **P < 0.01 by t-test. Data are representative of two independent experiments
A total of 29 AHB patients were enrolled for blood collection, which were divided into two groups: HLA-A2-positive (n = 19) and HLA-A2-negative (n = 10). All patients were negative for HCV, HDV, and HIV-1 infection. 10 mL of blood samples were collected from each patient.
To detect epitope-specific T cells, enzyme-linked immunosorbent spot (ELISPOT) assay was performed according to the manufacturer’s instruction. Briefly, ninety-six well PVDF plates (BD-Pharmigen, San Diego, CA) were precoated overnight at 4°C with the coating Ab and blocked for 1 h at 37°C. Patient PBMCs (2 × 10^5) or murine splenocytes (10^6) were added to each well together with 50 μg/mL of peptide and incubated at 37°C for 24–48 h with phytohemagglutinin (PHA)-stimulated T cells as positive controls. Each test was performed at least in triplicate. The spots were counted and analyzed using an ELISPOT Reader (Cellular Technology Ltd, USA).

Substance	FI (fluorescent index) [1]	FI (fluorescent index), binding to HLA-A*0201 [2]	also measured
HBc60–68 (V60) peptide	2.64	–	–
HBc140–149 peptide	0.033	–	–
HBc141–148 peptide	0.124	–	–
HBc141–149 peptide	2.41	–	–
HBc141–150 peptide	0.005	–	–
HBc142–149 peptide	0.151	–	–
LSTLPETTVV [HBc140–149, extended decapeptide of HBc141–149, […]]	–	0.033	–
RELVVSYVN [HBc82–90]	–	–	peptide-specific CTL response, IFN-γ ELISPOT (SFC) [3]: No peptide-specific CD8^+ T cell response was detected; peptide-specific CTL response, ex vivo IFN-γ ELISPOT [4]: 20.94 ± 17.57
STLPETTV [HBc141–148]	–	0.124	–
TLPETTVV [HBc142–149]	–	0.151	–
